Data set [1] has as its target Full-length His-She3p (Saccharomyces cerevisiae) (UniProt P38272). The experiment in a line: SPR; Biacore 3000, CM-5 chip, She3p amine-coupled, She2p flowed over, HNMD-buffer; steady state, Langmuir isotherm; duplicates. In general terms: Surface plasmon resonance follows binding to a sensor surface in real time, without labels.
Data set [2] concerns the target She2p;She3p (Saccharomyces cerevisiae;Saccharomyces cerevisiae) (UniProt P36068+P38272). In words: EMSA. To be noted: EMSA: 20 mM HEPES pH 7.8, 200 mM NaCl, 2 mM MgCl2, 2 mM DTT, 4% glycerol, 30 or 100 ug/ml yeast tRNA, 5 nM RNA, 20 C; filter binding: 20 mM HEPES pH 7.4-7.5 (7.). Background: A gel shift assay detects complexes by their altered migration in electrophoresis.

Among the data in article PMC3079584 are Kd values, retold here.

As a reminder, the Kd is the constant that tells how readily two partners part at equilibrium. A high value points to a looser complex.

Sequence of She2p;She3p (Saccharomyces cerevisiae;Saccharomyces cerevisiae) (P36068 whole entry, chain 1 of 2): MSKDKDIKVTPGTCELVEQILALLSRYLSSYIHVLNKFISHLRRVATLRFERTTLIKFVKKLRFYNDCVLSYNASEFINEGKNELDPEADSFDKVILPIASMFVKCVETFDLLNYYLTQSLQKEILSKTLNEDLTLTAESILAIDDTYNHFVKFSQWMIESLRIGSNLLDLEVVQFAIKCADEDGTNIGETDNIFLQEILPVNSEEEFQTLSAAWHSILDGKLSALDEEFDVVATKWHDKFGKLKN
Sequence of She2p;She3p (Saccharomyces cerevisiae;Saccharomyces cerevisiae) (P38272 whole entry, chain 2 of 2): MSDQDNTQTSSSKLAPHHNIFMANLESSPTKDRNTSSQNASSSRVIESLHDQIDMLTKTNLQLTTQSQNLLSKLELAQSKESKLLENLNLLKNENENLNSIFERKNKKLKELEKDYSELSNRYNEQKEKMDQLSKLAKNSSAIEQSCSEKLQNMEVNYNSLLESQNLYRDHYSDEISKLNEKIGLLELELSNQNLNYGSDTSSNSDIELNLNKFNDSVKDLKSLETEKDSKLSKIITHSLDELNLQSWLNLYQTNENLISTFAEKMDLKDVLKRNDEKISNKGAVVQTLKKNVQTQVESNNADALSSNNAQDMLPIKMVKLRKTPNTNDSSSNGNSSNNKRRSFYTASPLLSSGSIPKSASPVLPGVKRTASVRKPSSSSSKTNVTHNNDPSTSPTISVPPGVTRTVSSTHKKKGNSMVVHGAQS
Sequence of Full-length His-She3p (Saccharomyces cerevisiae) (P38272 whole entry): as the sequence (P38272 whole entry, chain 2 of 2) above

As to “She2p (ΔC) (from UniProt P36068 1-240) (domain or fragment)”, the Kd in data set [1] was 2000 nM.

Consider HIV-1 TAR (length not stated), for which, in data set [2], the Kd was above 1500 nM.
